Measured values: patent US20100272731A1 (SCHERING, published 2010)
Values joined by “and” are separate entries in the source; they are usually repeats but may differ in a detail not shown here. Identical values can stand only once. Blank lines part the entries; values can stand above or below the binder they belong to.

Columns and labels:
human IL-23 [1] = molecular target: T1, human IL-23 (human, UniProt P29460 23-328); experiment: BIAcore (SPR), antibody amine-coupled to CM5 chip, IL-23 as analyte; first replicate determination
T1 construct: also called hIL-23
T1 sequence 1: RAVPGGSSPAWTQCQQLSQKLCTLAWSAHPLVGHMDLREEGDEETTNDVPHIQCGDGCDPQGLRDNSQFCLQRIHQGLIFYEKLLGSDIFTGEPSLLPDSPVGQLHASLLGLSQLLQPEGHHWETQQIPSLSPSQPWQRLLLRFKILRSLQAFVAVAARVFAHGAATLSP
T1 sequence 2: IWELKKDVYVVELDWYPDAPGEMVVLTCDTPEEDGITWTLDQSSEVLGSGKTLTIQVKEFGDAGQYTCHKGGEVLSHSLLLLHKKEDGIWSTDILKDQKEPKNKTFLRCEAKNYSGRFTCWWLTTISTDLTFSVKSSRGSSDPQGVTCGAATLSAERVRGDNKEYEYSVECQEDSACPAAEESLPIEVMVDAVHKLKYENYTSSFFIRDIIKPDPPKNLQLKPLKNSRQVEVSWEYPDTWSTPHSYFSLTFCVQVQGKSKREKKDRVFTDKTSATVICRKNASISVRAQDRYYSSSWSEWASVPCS
Description: (§1) BIAcore determinations are performed essentially as described at Example 4 of commonly assigned U.S. Patent Application Publication No. 2007/0048315. Briefly, ligands (anti-IL-23 mAbs) are immobilized on a BlAcore CM5 sensor chip using standard amine-coupling procedure. IL-23 is diluted in PBS to produce various concentrations. Kinetic constants for the various interactions are determined using BIAevaluation software 3.1. The Kd is determined using the calculated dissociation and association rate constants.

human IL-23 [2] = molecular target: T1, human IL-23; experiment: cell-based or functional assay
human IL-23 [3] = molecular target: T1, human IL-23; experiment: cell-based or functional assay; remark: listed apart in the source
human IL-23 [4] = molecular target: T1, human IL-23; experiment: BIAcore (SPR), antibody amine-coupled to CM5 chip, IL-23 as analyte; second replicate determination
Description: as §1
Table 4 provides the Kd values as determined by BlAcore, including replicate determinations.

human IL-23 [5] = molecular target: T1, human IL-23; experiment: cell-based or functional assay; remark: listed apart in the source
human IL-23 [6] = molecular target: T1, human IL-23; experiment: BIAcore (SPR), essentially as in Example 4
Description: as §1

human IL-23 [7] = molecular target: T1, human IL-23; experiment: BIAcore (SPR), antibody amine-coupled to CM5 chip, IL-23 as analyte
Description: as §1

[8] = molecular target: T2, non-linked (native) human IL-23 comprising two disulfide-linked chains, human p19 and human p40 (human, UniProt P29460 23-328); experiment: KinExA, antibody pre-incubated with native human IL-23 in solution; first replicate determination (64 ± 40)
T2 sequence 1: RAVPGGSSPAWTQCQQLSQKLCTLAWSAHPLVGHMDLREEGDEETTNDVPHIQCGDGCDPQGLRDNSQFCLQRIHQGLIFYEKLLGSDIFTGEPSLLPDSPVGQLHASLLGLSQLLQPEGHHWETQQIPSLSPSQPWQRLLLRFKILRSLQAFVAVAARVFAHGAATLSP
T2 sequence 2: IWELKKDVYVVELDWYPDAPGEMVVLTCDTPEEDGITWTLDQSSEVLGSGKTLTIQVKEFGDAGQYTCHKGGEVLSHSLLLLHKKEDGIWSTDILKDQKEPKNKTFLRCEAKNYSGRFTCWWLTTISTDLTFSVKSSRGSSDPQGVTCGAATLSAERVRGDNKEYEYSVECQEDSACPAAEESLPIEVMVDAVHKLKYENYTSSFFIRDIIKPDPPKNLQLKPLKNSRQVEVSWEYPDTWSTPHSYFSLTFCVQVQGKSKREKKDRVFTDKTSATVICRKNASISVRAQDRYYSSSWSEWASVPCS
Description: (§2) The equilibrium dissociation constant (Kd) for anti human IL-23 antibodies is determined using the KinExA 3000 instrument. Sapidyne Instruments Inc., Boise Id., USA. KinExA uses the principle of the Kinetic Exclusion Assay method based on measuring the concentration of uncomplexed antibody in a mixture of antibody, antigen and antibody-antigen complex. The concentration of free antibody is measured by exposing the mixture to a solid-phase immobilized antigen for a very brief period of time. In practice, this is accomplished by flowing the solution phase antigen-antibody mixture past antigen-coated particles trapped in a flow cell. Data generated by the instrument are analyzed using custom software. Equilibrium constants are calculated using a mathematical theory based on the following assumptions: […]
(§3) Binding of anti-IL-23p19 antibodies is assessed in a competition binding assay, in which antibodies are pre-incubated with non-linked (native) human IL-23 comprising two disulfide-linked chains, human p19 (SEQ ID NO: 47) and human p40 (GenBank Accession No. P29460), at a series of concentrations. […] The amount of antibody captured by the PMMA particles is then detected using a fluorescently labeled secondary antibody.

human IL-23 [9] = molecular target: T1, human IL-23; experiment: BIAcore (SPR), antibody amine-coupled to CM5 chip, IL-23 as analyte; third determination, upper end of range 81-129
Description: as §1

human IL-23 [10] = molecular target: T1, human IL-23; experiment: BIAcore (SPR), antibody amine-coupled to CM5 chip, IL-23 as analyte; third determination, lower end of range 81-129
Description: as §1

human IL-23 [11] = molecular target: T1, human IL-23; experiment: BIAcore (SPR), antibody amine-coupled to CM5 chip, IL-23 as analyte; first determination, lower end of range 72-104
Description: as §1

human IL-23 [12] = molecular target: T1, human IL-23; experiment: BIAcore (SPR), antibody amine-coupled to CM5 chip, IL-23 as analyte; second determination, upper end of range 68-100
Description: as §1

human IL-23 [13] = molecular target: T1, human IL-23; experiment: BIAcore (SPR), antibody amine-coupled to CM5 chip, IL-23 as analyte; first determination, upper end of range 72-104
Description: as §1

[14] = molecular target: T2, non-linked (native) human IL-23 …; experiment: KinExA, antibody pre-incubated with native human IL-23 in solution; fourth replicate determination
Description: as §2, §3

[15] = molecular target: T2, non-linked (native) human IL-23 …; experiment: KinExA, antibody pre-incubated with native human IL-23 in solution; third replicate determination
Description: as §2, §3

human IL-23 [16] = molecular target: T1, human IL-23; experiment: BIAcore (SPR), antibody amine-coupled to CM5 chip, IL-23 as analyte; second determination, lower end of range 68-100
Description: as §1

[17] = molecular target: T2, non-linked (native) human IL-23 …; experiment: KinExA, antibody pre-incubated with native human IL-23 in solution; second replicate determination
Description: as §2, §3

B2: humanized anti-IL-23p19 antibody 13B8-b (antibody, human IgG1, kappa, V domains shown)
VH: QVQLVQSGAEVKKPGASVKVSCKASGYIFITYWMTWVRQAPGQGLEWMGQIFPASGSADYNEKFEGRVTMTTDTSTSTAYMELRSLRSDDTAVYYCARGGGGFAYWGQGTLVTVSS
VL: DIQMTQSPSSLSASVGDRVTITCRTSENIYSYLAWYQQKPGKAPKLLIYNAKTLAEGVPSRFSGSGSGTDFTLTISSLQPEDFATYYCQHHYGIPFTFGQGTKVEIKR
notes: also called hum13B8-b; Hum 13B8-b
IC50 in the Ba/F3 proliferation assay (340 pM IL-23) (human IL-23 [5]): 187 pM
IC50 in the KIT225 STAT-3 phosphorylation assay (138 pM human IL-23) (human IL-23 [5]): 130 pM
IC50 in the human splenocyte assay (IFN-γ production, 170 pM human IL-23) (human IL-23 [5]): 0.059 to 0.144 nM
Kd (human IL-23 [6]): 0.297 nM
Kd (human IL-23 [7]): 0.077 nM and 0.129 nM and 0.069 nM and 0.116 nM
Splenocyte assay IC50 (IL-17 production by mouse splenocytes) (human IL-23 [2]): 0.11 nM and 0.221 nM
IC50 for blocking of Ba/F3 cell proliferation (human IL-23 [3]): 1.2 nM and 1.1 nM

B3: humanized anti-IL-23p19 antibody 13B8-a (antibody, human IgG1, kappa, V domains shown)
VH: QVQLVQSGAEVKKPGASVKVSCKASGYIFITYWMTWVRQAPGQGLEWMGQIFPASGSADYNEMFEGRVTMTTDTSTSTAYMELRSLRSDDTAVYYCARGGGGFAYWGQGTLVTVSS
VL: DIQMTQSPSSLSASVGDRVTITCRTSENIYSYLAWYQQKPGKAPKLLIYNAKTLAEGVPSRFSGSGSGTDFTLTISSLQPEDFATYYCQHHYGIPFTFGQGTKVEIKR
notes: also called hum13B8-a; h13B8-a
Kd [8]: 0.064 nM
Kd (human IL-23 [9]): ≤ 0.129 nM
Kd (human IL-23 [10]): ≥ 0.081 nM
Kd (human IL-23 [11]): ≥ 0.072 nM
Kd (human IL-23 [12]): ≤ 0.1 nM
Kd (human IL-23 [13]): ≤ 0.104 nM
Kd [14]: 0.447 nM
Kd [15]: 0.365 nM
Kd (human IL-23 [16]): ≥ 0.068 nM
Kd [17]: 0.11 nM
IC50 for blocking of Ba/F3 cell proliferation (human IL-23 [3]): 1.1 nM

Results, then the binder that gave them:

Kd (human IL-23 [1]): 0.173 nM
Splenocyte assay IC50 (IL-17 production by mouse splenocytes) (human IL-23 [2]): 0.064 nM and 0.028 nM and 0.054 nM
IC50 for blocking of Ba/F3 cell proliferation (human IL-23 [3]): 0.7 nM
Kd (human IL-23 [4]): 0.228 nM
B1: murine antibody 13B8 (mouse IgG1/kappa) (antibody, V domains shown)
VH: HVQLQQSGPELVRPGASVELSCKASGYIFITYWMTWMKQRPGQGLEWIGQIFPASGSADYNEMFEGKATLTVDTSSNTAYMQLSSLTSEDSAVYFCARGGGGFAYWGQGTLVTVSA
VL: DIQMTQSPASLSASVGETVTITCRTSENIYSYLAWYQQKQGKSPQLLVYNAKTLAEGVPSRFSGSGSGTQFSLKINRLQPEDFGRYFCQHHYGIPFTFGSGTKLEIKR
notes: also called m13B8; mouse 13B8

Kd (human IL-23 [7]): 0.092 to 0.153 nM
Splenocyte assay IC50 (IL-17 production by mouse splenocytes) (human IL-23 [2]): 0.515 nM
IC50 for blocking of Ba/F3 cell proliferation (human IL-23 [3]): 1.1 nM and 2.2 nM
B4: humanized anti-IL-23p19 antibody 13B8-c (antibody, human IgG1, kappa, V domains shown)
VH: QVQLVQSGAEVKKPGASVKVSCKASGYIFITYWMTWVRQAPGQGLEWMGQIFPASGSADYAQKLQGRVTMTTDTSTSTAYMELRSLRSDDTAVYYCARGGGGFAYWGQGTLVTVSS
VL: DIQMTQSPSSLSASVGDRVTITCRTSENIYSYLAWYQQKPGKAPKLLIYNAKTLAEGVPSRFSGSGSGTDFTLTISSLQPEDFATYYCQHHYGIPFTFGQGTKVEIKR
notes: also called hum13B8-c; h13B8-c
